The supplement of paper PMC12764529
± gives the half width of the 95% confidence interval.

Key:
[1] = folding stability dG unfold from trypsin proteolysis; higher = more stable
In short: (§1)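 Digests were run with trypsin and chymotrypsin at 11 concentrations in threefold dilutions, plus a no-protease condition, on designed mini-proteins in a PA-tagged cDNA display construct. The mini-proteins were under 80 residues, had no cysteine, and were kept only when AlphaFold2 dimer inter-PAE was above 15. After sequencing, Bayesian fitting of the counts gave K50, from which unfolding free energy was derived against a sequence-predicted unfolded-state K50 and a shared folded-state K50, per protease or combined.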

[2] = folding stability dG unfold (combined trypsin and chymotrypsin); higher = more stable
In short: as §1

[3] = folding stability dG unfold from chymotrypsin proteolysis; higher = more stable
In short: as §1

Row | Sequence | folding stability dG unfold [1] [kcal/mol] | folding stability dG unfold [2] [kcal/mol] | folding stability dG unfold [3] [kcal/mol]
1 | SAGGSAGGSAGGGSVVTTETSVSPNGVVTTTTTTTFLDPDGNPLGTTTTTTAHAAPPTTSAGGSAGGSAGGS [r10_403_JUSTAS] | 2.58 ± 0.076 | 2.12 ± 0.024 | 1.8 ± 0.031
2 | SAGGMTAEEIAEALRERLRELFPPGAEIEVDEIEVEEVEVEEEPVELSEEERERVEKMPEEERERLLSAGGS [r16_272_TrROS_Hall] | 1.27 ± 0.22 | 0.635 ± 0.33 | -0.0968 ± 0.18
3 | SAGGSAGMTITSATEVGTTTFNGGSITHYTLTTPSGKTITGEVDPATGTLTISFPETGLSITIPPKSAGGSA [r15_159_JUSTAS] | 1.09 ± 0.023 | 1 ± 0.1 | 0.729 ± 0.19
4 | SKPGKTIMIMITMDNIKEFLEELPLEPNMEVEIMFMNPNGKMRTLTIRNGEIDSIEPFPNFPDYWMIMIKSA [r9_849_TrROS] | 2.69 ± 0.071 | 2.78 ± 0.24 | 2.92 ± 0.07
5 | SPESIEVQISKSSSTSPSGGSEEIYTVTVTYPATGKTLTKNFTATLNPDGTTNPNGSPEELAAKLAAELLAS [r1_77_JUSTAS] | 1.37 ± 0.079 | 2 ± 0.1 | 2.23 ± 0.026
6 | SAGGSAGGSAGMELKIKVTLTPPGAPVPLTLELEVESEEEARERLEKEYPDREIELEVLESAGGSAGGSAGG [r17_428_JUSTAS] | -0.534 ± 0.072 | 0.143 ± 0.093 | 0.354 ± 0.088
7 | SAGGKYVIIMFPLPPNLEVEIEYPGVPVHRTPNGSLMFQIPPNEPIRIKIKNPNGEEEELPINIFPLSAGGS [r8_72_TrROS] | 1.77 ± 0.1 | 2.2 ± 0.2 | 2.33 ± 0.1
8 | SAGGSWVIIIQITIRNPGEERKITIPMEEIQGMPLEQIADNLRKLPGIGDVTIEIQEFPPPKPNDPSAGGSA [r2_282_TrROS] | 2.31 ± 0.11 | 2.31 ± 0.2 | 2.34 ± 0.099
9 | SAGGSAMMTLEEAIEKAAKNIPVGEKKIIEIKLEKGTFTVEIEKIGPKEVKIKILKISKGPEEEEISAGGSA [r15_150_TrMRF] | 3.99 ± 0.23 | 4.61 ± 0.3 | 4.68 ± 0.18
10 | SAGGKIKIVLSAEELEKKFGKSIEELAAELAKKLFPNKKVKVKKVKIEKDENGKEKLYVEVEIEPEKPSAGG [r13_723_TrROS_Hall] | 2.91 ± 0.15 | 3.11 ± 0.17 | 3.2 ± 0.073
11 | SAGGSAPVVEYEFVDPGNGRKVKIEVYPHPDGNYQMSIEVYDPGKPVEKIPFWMPPGEMPIEDLLKSAGGSA [r15_147_TrROS] | 0.528 ± 0.059 | 0.565 ± 0.13 | 0.565 ± 0.24
12 | SAGGSAMTAEEVEEKVREAFAALGVEAEVEVRESPEGGLEVLVVTGEDADLEEVKAALEELFGTDISAGGSA [r15_807_TrMRF] | 2.51 ± 0.12 | 2.48 ± 0.078 | 2.5 ± 0.064
13 | SAGGDPLVLEFDGVTVVYDPKTKTLVVFAPSSEVERLVKALGPKFEPLEIFELEDGSVVMLVRIKPESAGGS [r8_415_TrMRF] | 3.53 ± 0.12 | 4.35 ± 0.13 | 4.53 ± 0.1
14 | SAGGNWTIEVEIEENPDGPYRITIRYRAPNGEEHKVTMWFDPDNGTFPIKLPGPLPPDQIEDIEIWPSAGGS [r16_95_TrROS] | 3.41 ± 0.36 | 4.91 ± 0.19 | 5.04 ± 0.24
15 | SAGGSAGGSAKMIFVKNEDGTITMFTLNEDGYLTVTTVTLDKKTKKMTVETKTIKLTDPELLSAGGSAGGSA [r18_503_TrROS_Hall] | 1.16 ± 0.027 | 2.14 ± 0.17 | 2.46 ± 0.081
16 | SAGGSAGSKPVTINWKITHPDGTPTTIPFSFPTEEQALEEALKAAEALAKEAGYPDFKIEIDEIIPSAGGSA [r15_698_TrMRF] | 0.0851 ± 0.091 | 0.358 ± 0.091 | 0.47 ± 0.12
17 | KTISSDELLELLGVSKSELKKLPLEAIVDEVKKALPPGVAVSAKAEPIPENPSYTIVVELKNGEPVTITLDS [r1_340_TrMRF] | 1.06 ± 0.041 | 0.964 ± 0.12 | 1 ± 0.026
18 | SAGGAEVDPETKVVHIRIRARSAEELLAAIEALPADEVIIEVYNEETGKTERIRLSREELRKLLEEASAGGS [r16_797_TrROS_Hall] | 1.92 ± 0.021 | 2.54 ± 0.031 | 2.82 ± 0.018
19 | SAGGSMALVEIERPGGEGALRTVDTSNPAAVKAFVDAVPEDEPVRVYTDDPAVVELFKEAGFDEVLLESAGG [r13_476_JUSTAS] | -0.0819 ± 0.053 | 0.55 ± 0.096 | 0.775 ± 0.087
20 | SMSFEAELTLPDQPVTVPVTLDPATGTATVTVTTTHPDRDETTTTTVTVSDPSELLALLRELPPGATLRLSA [r9_713_JUSTAS] | 0.307 ± 0.079 | 0.771 ± 0.068 | 0.974 ± 0.059
21 | SAGGDKLEDLPLEDVEVLRVEVIPLPDGGVLVVFEFKVSDEEGPERLVRVVVLVENDEARVFVEPLGSAGGS [r16_469_TrMRF] | 2.05 ± 0.085 | 2.91 ± 0.13 | 3.2 ± 0.081
